Assay [1] concerns the target ATP5B protein (Homo sapiens, UniProt P06576). As to the kind of experiment: SPR binding ability test. Particulars: ATP5B on CM5 chip, flow rate 50 μl/min, relative to control shortened sequence (SEQ ID NO: 12). As for the experimental part: In order to evaluate substitutable residues within a sequence, an SPR (surface plasma resonance) test was conducted. Specifically, the ATP5B protein was conjugated to a CM5 chip by amine-conjugation, and then the contact of each test substance was observed under the condition of a flow rate of 50 μl/min, and the refractive index was measured. Thereafter, by converting each binding unit, the binding ability was compared and evaluated. […] A decrease of 10% or more in binding ability was considered to indicate a negative effect of the substitution.
A general note: In SPR one partner is held on a chip, and binding of the other changes the refractive index at the surface.

The subject of assay [2] is MDA-MB-231 triple-negative breast cancer cell line. In words: MTT cell viability in breast cancer cells. Format: cell-based. Particulars: 1 μM, 48 hours; compared with Control (PBS), SEQ ID NO: 4 and SEQ ID NO: 5. As for the experimental part: Next, the test substances, the fusion proteins (SEQ ID NO: 1, 2, 3, 7, 14, 15) and shortened sequences (SEQ ID NOs: 9, 10, 11, 12) were treated to MDA-MB-231 triple-negative breast cancer cell line at a concentration of 1 μM (Control: PBS) for 48 hours. Thereafter, the cells were washed with PBS once, and the cells were suspended in serum-free buffer. The MTT (3-[4,5-dimethylthiazol-2-yl]-2,5-diphenyltetrazolium bromide) substance was added thereto at 0.5 mg/ml and incubated at 37° C. for 2 hours. Then, they were washed with PBS once, and the cells were lysed with DMSO for 15 minutes. The solution was transferred to a new plate and the absorbance was measured at 590 nm using a microplate reader.

For assay [3], the system named is MDA-MB-231 cell line. As to the kind of experiment: Reactive oxygen generation (DCF-FA) in breast cancer cells. It counts as cell-based. Particulars: 1 μM, 24 hours; compared with Control and SEQ ID NO: 5. As for the experimental part:
In addition, in order to examine generation of reactive oxygen that plays an important role in cancer cell death, each test substance was treated to the MDA-MB-231 cell line at a concentration of 1 μM (Control: PBS) for 24 hours. Then, the cells were stained with DCF-FA and their fluorescence values were observed and compared at 485/535 nm.

Assay [4] has as its system cAMP (cyclic AMP). In words: cAMP level (hTRF) in undifferentiated 3T3-L1 cells. Particulars: undifferentiated 3T3-L1, 100 nM with 0.5 mM IBMX, 30 minutes; compared with Control and SEQ ID NO: 5. Format: cell-based, mouse. As for the experimental part:
To observe the functionality of the fusion proteins related to lipid metabolism, the 3T3-L1 mouse pre-adipocyte cell line was used as the cell line itself (undifferentiated) or by differentiating into adipocytes. Differentiation into the adipocytes was performed by inducing primary differentiation for the 3T3-L1 cells in a medium containing DMEM, 10% FBS, 10 μg/ml insulin, 0.5 mM IBMX (3-Isobutyl-1-methylxanthine), and 1 μM dexamethasone for 2 days, and inducing secondary differentiation with a medium containing DMEM, 10% FBS, and 10 μg/ml insulin for the remaining 4 days. The adipocytes in which differentiation was finally completed were treated with the test substances at a concentration of 100 nM for 30 hours (Control: PBS) and then used for each test.
Next, changes in cAMP (cyclic AMP), a signaling mediator contributing to lipolysis and energy metabolism were evaluated in the undifferentiated adipocytes. The undifferentiated cells were treated with the test substances at a concentration of 100 nM (Control: PBS) with 0.5 mM IBMX for 30 minutes. Thereafter, the level of cAMP was evaluated by the hTRF (Homogeneous Time Resolved Fluorescence) method (using CAMP Gs dynamic kit from Cisbio). As a result of the measurement, it was confirmed that the level of cAMP was higher in the groups treated with the fusion proteins (SEQ ID NOs: 1, 2, 3, 7, 13, 14, 15) and shortened sequences (sequences 9, 10, 11) compared with the Control and His tag-wild-type substance (1-81) (SEQ ID NO: 5) (FIG. 7).

Assay [5] relates to SH-SY5Y dopaminergic neuron cell line. In words: MTT cell viability of neuron cells under rotenone. Format: cell-based. Particulars: 1 µM rotenone + 100 nM test substance, 24 hours; compared with rotenone alone. As for the experimental part:
(§1) The SH-SY5Y dopaminergic neuron cell line was treated with 1 µM of a toxic substance, rotenone and 100 nM of each test substance simultaneously. After 24 hours, the MTT cell viability or the effect of reducing reactive oxygen was observed.

For assay [6] the test system is unchanged. In words: Reactive oxygen in neuron cells under rotenone. Particulars: 1 µM rotenone + 100 nM test substance, 24 hours; compared with rotenone alone. Format: cell-based. As for the experimental part:
as §1

Chain of ATP5B protein (P06576 48-529, species assumed): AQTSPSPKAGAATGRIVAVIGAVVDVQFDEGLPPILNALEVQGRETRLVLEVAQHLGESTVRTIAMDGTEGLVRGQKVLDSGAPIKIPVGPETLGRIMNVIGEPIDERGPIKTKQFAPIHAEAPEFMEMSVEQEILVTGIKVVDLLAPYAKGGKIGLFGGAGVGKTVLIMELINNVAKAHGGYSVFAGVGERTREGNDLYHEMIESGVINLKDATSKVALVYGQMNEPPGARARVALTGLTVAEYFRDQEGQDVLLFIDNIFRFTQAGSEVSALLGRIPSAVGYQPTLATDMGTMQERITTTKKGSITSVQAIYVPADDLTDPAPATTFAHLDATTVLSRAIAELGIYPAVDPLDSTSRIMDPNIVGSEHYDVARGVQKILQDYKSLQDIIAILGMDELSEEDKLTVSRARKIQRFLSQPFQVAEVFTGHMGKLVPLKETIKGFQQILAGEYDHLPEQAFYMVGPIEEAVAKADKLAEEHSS

“SEQ ID NO: 19: Shortened substance (8-35) amino acid Ala substituted (11) VDRAAGSIREAGGAFGKREQAEEERYFR”: in assay [1], the “Binding (%)” value is 100.0%.

On to “SEQ ID NO: 26: Shortened substance (8-35) amino acid Ala substituted (20) VDRGAGSIREAGAAFGKREQAEEERYFR”, for which the “Binding (%)” value in assay [1] came to 68.0%.

As for “SEQ ID NO: 16: Shortened substance (8-35) amino acid Ala substituted (8) ADRGAGSIREAGGAFGKREQAEEERYFR”, the “Binding (%)” value in assay [1] is reported as 101.4%.

In the case of “SEQ ID NO: 25: Shortened substance (8-35) amino acid Ala substituted (19) VDRGAGSIREAAGAFGKREQAEEERYFR”, in assay [1], the “Binding (%)” value is 89.6%.

In the case of “SEQ ID NO: 24: Shortened substance (8-35) amino acid Ala substituted (17) VDRGAGSIRAAGGAFGKREQAEEERYFR”, the “Binding (%)” value in assay [1] worked out at 168.7%.

For “SEQ ID NO: 28: Shortened substance (8-35) amino acid Ala substituted (23) VDRGAGSIREAGGAFAKREQAEEERYFR”, the “Binding (%)” value in assay [1] came out at 102.3%.

Regarding “SEQ ID NO: 38: Shortened substance (8-35) amino acid Ala substituted (34) VDRGAGSIREAGGAFGKREQAEEERYAR”, in assay [1], the “Binding (%)” value is given as 92.1%.

Consider “SEQ ID NO: 35: Shortened substance (8-35) amino acid Ala substituted (31) VDRGAGSIREAGGAFGKREQAEEARYFR”, for which the “Binding (%)” value in assay [1] was found to be 157.9%.

Regarding “SEQ ID NO: 30: Shortened substance (8-35) amino acid Ala substituted (25) VDRGAGSIREAGGAFGKAEQAEEERYFR”, the “Binding (%)” value in assay [1] is on record as 85.2%.

With “SEQ ID NO: 37: Shortened substance (8-35) amino acid Ala substituted (33) VDRGAGSIREAGGAFGKREQAEEERAFR”, the “Binding (%)” value in assay [1] is recorded as 145.8%.

For “SEQ ID NO: 29: Shortened substance (8-35) amino acid Ala substituted (24) VDRGAGSIREAGGAFGAREQAEEERYFR”, in assay [1], the “Binding (%)” value came out at 100.5%.

Take “SEQ ID NO: 18: Shortened substance (8-35) amino acid Ala substituted (10) VDAGAGSIREAGGAFGKREQAEEERYFR”: the “Binding (%)” value in assay [1] amounted to 104.2%.

For the substance “SEQ ID NO: 34: Shortened substance (8-35) amino acid Ala substituted (30) VDRGAGSIREAGGAFGKREQAEAERYFR”, in assay [1], the “Binding (%)” value is listed as 94.0%.

Turning to “SEQ ID NO: 39: Shortened substance (8-35) amino acid Ala substituted (35) VDRGAGSIREAGGAFGKREQAEEERYFA”, the “Binding (%)” value in assay [1] is reported as 109.6%.

“SEQ ID NO: 31: Shortened substance (8-35) amino acid Ala substituted (26) VDRGAGSIREAGGAFGKRAQAEEERYFR”: the “Binding (%)” value in assay [1] was found to be 94.1%.

As for “SEQ ID NO: 10: Synthetic peptide: Shortened substance (1-47) GSDQSENVDRGAGSIREAGGAFGKREQAEEERYFRAQSREQLAALKK (listed as Homo sapiens)”, the figures for the “Cell viability (MTT)” value in assay [2] and in assay [5] were “significantly low” and “significantly increased”, respectively. In addition, the Reactive oxygen generation result in assay [3] is listed as “generated higher”. Further, the “Level of cAMP” value in assay [4] was “higher”. In addition, the “Generation of reactive oxygen” value in assay [6] is given as “significantly inhibited”.

“SEQ ID NO: 33: Shortened substance (8-35) amino acid Ala substituted (29) VDRGAGSIREAGGAFGKREQAAEERYFR”: the “Binding (%)” value in assay [1] stood at 96.7%.

As to “SEQ ID NO: 11: Synthetic peptide: Shortened amino acid modified substance (10-49; H49K mutation introduced) RGAGSIREAGGAFGKREQAEEERYFRAQSREQLAALKKHK”, the “Cell viability (MTT)” value in assay [2] was “significantly low”; in assay [5] it was “significantly increased”. Besides, the Reactive oxygen generation entry in assay [3] was “generated higher”. For the same substance, in assay [4], the “Level of cAMP” value is “higher”. Also, the “Generation of reactive oxygen” value in assay [6] is “significantly inhibited”.

Consider “SEQ ID NO: 9: Synthetic peptide: Shortened substance (1-60) (GSDQSENVDRGAGSIREAGGAFGKREQAEEERYFRAQSREQLAALKKHHEEEIVHHKKEI; listed as Homo sapiens)”, for which the “Cell viability (MTT)” value is listed as “significantly low” in assay [2] and “significantly increased” in assay [5]. Moreover, in assay [3], the Reactive oxygen generation entry is on record as “generated higher”. The “Level of cAMP” value in assay [4] was “higher”. Besides, the “Generation of reactive oxygen” value in assay [6] is recorded as “significantly inhibited”.

Take “SEQ ID NO: 32: Shortened substance (8-35) amino acid Ala substituted (27) VDRGAGSIREAGGAFGKREAAEEERYFR”: the “Binding (%)” value in assay [1] is reported as 89.5%.

Take “SEQ ID NO: 23: Shortened substance (8-35) amino acid Ala substituted (16) VDRGAGSIAEAGGAFGKREQAEEERYFR”: the “Binding (%)” value in assay [1] was 97.0%.

Take “SEQ ID NO: 17: Shortened substance (8-35) amino acid Ala substituted (9) VARGAGSIREAGGAFGKREQAEEERYFR”: the “Binding (%)” value in assay [1] amounted to 91.6%.

On to “SEQ ID NO: 36: Shortened substance (8-35) amino acid Ala substituted (32) VDRGAGSIREAGGAFGKREQAEEEAYFR”, for which the “Binding (%)” value in assay [1] was 426.0%.

For “SEQ ID NO: 12: Synthetic peptide: Shortened substance (8-35) VDRGAGSIREAGGAFGKREQAEEERYFR (listed as Homo sapiens)”, the “Cell viability (MTT)” value in assay [2] was “significantly low”. In assay [1], the “Binding (%)” value is reported as 100.0%.

In the case of “SEQ ID NO: 22: Shortened substance (8-35) amino acid Ala substituted (15) VDRGAGSAREAGGAFGKREQAEEERYFR”, in assay [1], the “Binding (%)” value stood at 99.3%.

On to “SEQ ID NO: 27: Shortened substance (8-35) amino acid Ala substituted (22) VDRGAGSIREAGGAAGKREQAEEERYFR”, for which the “Binding (%)” value in assay [1] was found to be 94.0%.

Regarding “SEQ ID NO: 20: Shortened substance (8-35) amino acid Ala substituted (13) VDRGAASIREAGGAFGKREQAEEERYFR”, the “Binding (%)” value in assay [1] is 98.5%.

“SEQ ID NO: 21: Shortened substance (8-35) amino acid Ala substituted (14) VDRGAGAIREAGGAFGKREQAEEERYFR”: the “Binding (%)” value in assay [1] was found to be 98.8%.
